This assay deals with human peripheral monocyte differentiated M1 macrophages. Description: In vitro sMIC induction of PDL1 expression on monocyte-derived macrophages (flow cytometry). Format: cell-based. Particulars: recombinant sMIC added at day 7, cultured 2 days; FIG. 4E. On the procedure: In vitro macrophage generation from peripheral monocytes: Human peripheral blood monocyte differentiation into macrophages. PBMCs from healthy donors were seeded at the density of 2×10^6 cells/well in a 24 well plate with pre-warmed monocyte attachment media (MAM, Promocell, Cat. No. c-28051) and incubate at 37° C. After 1.5 hr incubation, non-adherent cells were removed. Adherent cells were washed three times with pre-warmed MAM before cultured in macrophage differentiation media respectively, the M1 macrophage generating media (Promocell c-28055) or the M2 macrophage generating media (Promocell c-28056). After 5 days of culture, 50% of the media were replaced with fresh media. At day 7, recombinant sMIC (rsMICB, his-tagged, SinoBiologicals Cat. No 10759-H08H) or control vehicle PBS were added to the culture at indicated concentration. The culture was continued for 2 days before being harvested for analyses.
(Flow cytometry measures light scatter and fluorescence of single cells or particles in a stream.)

The source of these data is patent publication US20250298034A1, “METHODS OF TREATING IMMUNOTHERAPY-ASSOCIATED ADVERSE EFFECTS” (NORTHWESTERN UNIVERSITY, priority 2022, published 2025).

B1: sMIC: recombinant sMIC (rsMICB, his-tagged, SinoBiologicals Cat. No 10759-H08H) (protein, UniProt Q29980 23-383, looked up)
MHC class I …: AEPHSLRYNLMVLSQDGSVQSGFLAEGHLDGQPFLRYDRQKRRAKPQGQWAENVLGAKTWDTETEDLTENGQDLRRTLTHIKDQKGGLHSLQEIRVCEIHEDSSTRGSRHFYYDGELFLSQNLETQESTVPQSSRAQTLAMNVTNFWKEDAMKTKTHYRAMQADCLQKLQRYLKSGVAIRRTVPPMVNVTCSEVSEGNITVTCRASSFYPRNITLTWRQDGVSLSHNTQQWGDVLPDGNGTYQTWVATRIRQGEEQRFTCYMEHSGNHGTHPVPSGKALVLQSQRTDFPYVSAAMPCFVIIIILCVPCCKKKTSAAEGPELVSLQVLDQHPVGTGDHRDAAQLGFQPLMSATGSTGSTEGT
modifications: His-tag
In the case of B1, the “PDL1 expression on M1 macrophages” value is reported as “can induce PDL1 expression”.
